According to a protein production outcome set (Wang et al. 2014):

Test: label from the status in PepcDB records

With “MRIGHGFDVHKFGENGSGPLIIGGVRIPYEKGLLAHSDGDVALHAATDALLGAAALGDIGKLFPDTDPAFKGADSRGLLREAYRRILAKGYKLGNLDITIIAQAPKMAPHIPQMRVNLAEDLQCHMDDINVKATTTEQLGFTGRGEGIACEAVVLLVNVEQG” the protein production was “not failed”.

For “MVNEVQGIGIPTSHTSVQTTPTKEISRTNTINTVDESKTTIDPDQYKPKLELLSERLNEEMKRIGTDINFSYNDTIKGLVVSVKDANGDKVIREIPSKEAVELMQRMRDVIGIIFDKRG”, the protein production was “failed”.

For “MDPLNLSWYDDDLERQNWSRPFNGSDGKADRPHYNYYATLLTLLIAVIVFGNVLVCMAVSREKALQTTTNYLIVSLAVADLLVATLVMPWVVYLEVVGEWKFSRIHCDIFVTLDVMMCTASILNLCAISIDRYTAVAMPMLYNTRYSSKRRVTVMISIVWVLSFTISCPLLFGLNNADQNECIIANPAFVVYSSIVSFYVPFIVTLLVYIKIYIVLRRRRKRVNTKRSSRAFRAHLRAPLKGNCTHPEDMKLCTVIMKSNGSFPVNRRRVEAARRAQELEMEMLSSTSPPERTRYSPIPPSHHQLTLPDPSHHGLHSTPDSPAKPEKNGHAKDHPKIAKIFEIQTMPNGKTRTSLKTMSRRKLSQQKEKKATQMLAIVLGVFIICWLPFFITHILNIHCDCNIPPVLYSAFTWLGYVNSAVNPIIYTTFNIEFRKAFLKILHC”, the protein production was “failed”.

With “MFAVPYHQHLWRIKLALIAQNHLQLIIEVGIILYAAMVFILNLAPMSLSMVLFICIVLGIGFNIIFGLDVVALFMSFGQSEFTHPFGPIALLVTVSSLAALAIMEESGVDVRGLRGFVYLLMAGITLFGGLMHRSFLLLWLLGLFMGLFIISKSMRQRSLITVKRVAGFALIAVAGFGGLELISRVLGMTVLSPLLRIERLETFSLPSMKLVIKNTTLLGHNPMSSYWGELSSGFADGYISLPLQLILFFGLPFPVFYGILVNKKDVIDYMVPGVFGWAYDFGYITMFFLLIWCVGIIIMGLRMLSIYRERRENGSRSYLGREVLLTGALAAFMSQAIIGLFVINRTINGTALLTFIFLSSLIFANSVGLKE” the protein production was “failed”.

In the case of “DDLLIVRGVNLYPSEIEHAVLDINGVAPYYRIDLYEEDNLDVMELTVERAEGSSKDHSELRDDVLSRLQSVLSFTPDQLNLVNPGTIERTEVGKIQRVYDHRN”, the protein production is reported as “failed”.

With “MGLNNARGLSFGLDGALYVTEAGTGGNGACIPSVTGQGGSLCYGTSSTVLKIENGVTSPVLTGLPSIALADGTGAGGARDIQFDTTGKPYILMGYGANPTFRNNLGNIDLGKIIAPDFQTNSWTSIADLANYELVNNPDGGDINSNPLGFFIDGNNLIAVDAGANNLLSVQTNGTNLQTLSVFPQEILTNPVFPPSGTPSTEPGQVPTPTAPPPPQLPIQVVPSSVVRGPDGAYYVSQFTGFPFPEGGAKIYRVGTDGETTIYADGFTQLTDLEFDSAGNLYALQYANQSAWKGNFDGSLIKIAADGTRTTILSGNGLESPNALAIAPNGEIYITNRSDRPGLGQIIRVENSQAVPLEHHHHHH” the protein production was “failed”.

For “MTTKPVLVIGGTGKTGRRVVRLLRERGVPARPASRSGEVRFDWLDESTWGPALDGASGVYIVQNDGDPRTRALVRTAVASGVQRLALLSARGVDTPGYYGEDPATSEAFLEGEAAVRESGVDWTVLRPGWFAQNFDEGFFNEGVLAGELRLPAGDGAASWIDVEDIAAVAVAALTEDGHAGRTYELSGPAPLPLAEVLSVIEAAAGRKVRYTPLTTEEFIAELGAQGIPAEEAGLWAAALYPVERGFESKVSDGVRQALGRAPRTFAEYAEAAVAEGAWRD”, the protein production was “failed”.

With “EKMTRDEIAYMLTNSEETLDADEIEMLQGVFSLDELMAREVMVPRTDAFMVDIQDDSQAIIQSILKQNYSRIPVYDGDKDNVIGIIHTKSLLKAGFVDGFDNIVWKRILQDPLFVPETIFVDDLLKELRNTQRQMAILLDEYGGMAGLVTLEDLLEEIVGEID” the protein production was “not failed”.

With “PNFSHWGPPRIVEIFREPNVSLGISIVGGQTVIKRLKNGEELKGIFIKQVLEDSPAGKTNALKTGDKILEVSGVDLQNASHSEAVEAIKNAGNPVVFIVQSLSSTPRVIP” the protein production was “not failed”.

In the case of “MLETAALAAGMSWASGIRLYLAVLTAGVLARLGWLDLPPGLHVLESWWVIGIAGAMAAAEFVADKVPGFDTVWDGIQTFIRIPAGAILAAAAFGQLDPQWMVAAGLIGGTLAGTAHATKAGTRALINVSPEPFSNWVASFTEDITTAGGLLLAFFLPVVFLILLVLFLITAAWLLPKLWRGVRRLHAGLRGNADNQRP”, the protein production is reported as “failed”.

With “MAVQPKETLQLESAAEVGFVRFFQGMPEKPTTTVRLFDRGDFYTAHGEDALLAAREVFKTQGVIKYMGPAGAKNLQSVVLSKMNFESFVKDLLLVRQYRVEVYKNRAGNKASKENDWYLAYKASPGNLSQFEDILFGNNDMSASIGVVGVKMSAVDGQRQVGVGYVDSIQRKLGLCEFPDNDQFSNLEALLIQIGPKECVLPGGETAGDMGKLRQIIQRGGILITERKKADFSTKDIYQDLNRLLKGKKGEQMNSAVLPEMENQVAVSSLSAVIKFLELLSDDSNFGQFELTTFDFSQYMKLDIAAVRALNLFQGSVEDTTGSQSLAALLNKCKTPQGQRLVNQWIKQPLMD” the protein production was “failed”.

For “MPIELRRLRALRLAWGVALCLAVSFGIGLPVPILAPVFAVLLLAMRSQPLPLRAAPALALLVLLACGSGLLLIPLLRHAPLAGVLLVGVGVFLTLRYALKGGNGLLANLLVVGLTMIAAAGTSDFTLALSVVEALAKGMLLAVLGTSVVHTLFPEPANAPAPPVPPLLGSEHVSWVALRATLIVMPAFLLALIAPDQYMPLIMKAVSVGQQAGETRARHASRELIGSTLLAGVLAIALWVALSLFVHLWMFFLWVLLFALWQARRLYQAVPSRQSPAYWVSCLTTMLILLGQSVQDSAGGQDVYKAFAVRMALFLAVSVYASAMLIWIDRLRSRRGLLRG”, the protein production was “failed”.

For “MPEVRAERYIPAPPERVYRLAKDLEGLKPYLKEVESLEVVAREGARTRSRWVAVAMGKKVRWLEEEEWDDENLRNRFFSPEGDFDRYEGTWVFLPEGEGTRVVLTLTYELTIPIFGGLLRKLVQKLMQENVESLLKGLEERVLAASS”, the protein production was “not failed”.

In the case of “MCEKTAGDESGRRISRRAGNGEAGRLRSLSRLFDHFATAVTRWTGSPIAFSGACAAILAWASTGPLFGYSEVWQLVVNTGTTIVTFLMVFLIQQAQNKDSRALHVKLDELLVAVNGADVALAEAENLDDDRLLELADAYAARARRLVEHSTQRQRRDRGAEPEVGAARTRLARRPPGARARRHARLCWWQKQYARQRQGGDT”, the protein production is reported as “failed”.

For “MLKEKAGVIAGTIWNALNETEGMTAKQLKKATKLVDKDLFLGLGWLLREDKVSVEEVEGELFIKLI”, the protein production was “failed”.

In the case of “MQLKSRVFIVTGASSGLGAAVTRAGSGGRDSARAGPEAASGGRACRSSARRCASEMPTRMRPTPPPLAFAKQEFGHVHGLVNCAGTAPGEDSRQERPARTGQFRPHGRRQPDRHSTYGLPPRSCRRESRTPTASGVIVNTASIAAFDGQIGQAAYAAEGRRRRPDASGRARARAFRNSRRPLRPASSIRRWPACLRMFRMRAASVPFPPRLGRAEEYAALVKHIREYDAQWRGHPPRRGFAHGAPV”, the protein production is reported as “not failed”.

For “MKLCFNEATTLENSNLKLDLELCEKHGYDYIEIRTMDKLPEYLKDHSLDDLAEYFQTHHIKPLALNALVFFNNRDEKGHNEIITEFKGMMETCKTLGVKYVVAVPLVTEQKIVKEEIKKSSVDVLTELSDIAEPYGVKIALEFVGHPQCTVNTFEQAYEIVNTVNRDNVGLVLDSFHFHAMGSNIESLKQADGKKIFIYHIDDTEDFPIGFLTDEDRVWPGQGAIDLDAHLSALKEIGFSDVVSVELFRPEYYKLTAEEAIQTAKKTTVDVVSKYFSM”, the protein production was “not failed”.

In the case of “MITVNFLILLLGLVFLVKGSDYFVKSASTIAKKLGVSEFVIGLTLVAIGTSIPELASSIAASIQQASGIVIGNVVGSNIANVGLIVGVAALLSPMKTEIDMLKRDGYIMLFSAVLFFVFAFNRELSMLEAGLFVLLYIAYVFFLFEEAEKYEGKLHFKEFITYFFKFKYINSAMQKLNGNRNRNSDSDRNSDSGNGNERLEGGFAKDIFTLVLSCAAIVIGAKYFVEESIFFAELLGIPDTVIGTTLVAVGTSLPELVVTVSAARQGYGSIALGNVIGSNITNIFLILGLSGLFYPLSVAEMSLFFTTPVMIAISLILLIFISTGWEIKRWEGVVLMMFYVAFLVVLFYI”, the protein production is reported as “failed”.

In the case of “MIALAASSLGNTPIASFNRHFRFRLHPRNPLIQAAVSPSSSSSSPTASSGFDLSSLESAINKKDSNGVKEALDKLSEEGWAKKWSSQPYLSRRTTSLRELTTLGIKNAETLAIPSVRNDAAFLFTVVGSTGFIAVLAGQLPGDWGFFVPYLVGSISLVVLAVGSVSPGLLQAAISGFSTFFPDYQERIAAHEAAHFLGTLEKFKSFDSKVAYLIGLPILGYSLDIGKEHVNLIDERLAKLIYSGKLDSKELDRLAAVAMAGLAAEGLKYDKVIGQSADLFSLQRFINRSQPKISNEQQQNLTRWAVLYSASLLKNNKTIHEALMAAMSKNASVLECIQTIETAS”, the protein production is reported as “failed”.

For “MTNAEAVTVTNKQIIFPDYVTGFPKESDLKITTTTIDLRLPEGSTSVLVKNLYLSCDPYMRICMGKPDPLSSSLVPPYKTGVPIIGLGVSKVIDSGHPDYKKGDLLWGLVGWEEYSVITLTTYSHFKIEHTDVPLSYYTGLLGMPGMTAYAGFYEVCSPKKGETVFVSAASGAVGQLVGQFAKLMGCYVVGSAGSKEKVYLLKTKFGFDDAFNYKEEKDFSAALKRYFPEGIDIYFENVGGKMLDAVLINMKLHGRVAVCGMISQYNLVDPEGVHNLPTILYKRIQLQGFGVCDFYDKYPKFLDFVLPYIREGKITYVEDIAEGFESGPSALLGLFEGKNVGKQLFVVARE”, the protein production was “failed”.

With “MEDSSGQSLLFQFILLLILTLLSAFFSASEMALVSLNRSRVEQKAEEGDKKFIRLLKVLENPNNFLSTIQVGITFIGLLQGASLSASLGAVIATWFGNVAWAKTAGSVVSLVVLTYISIVFGELYPKRIAMNLKENLAIYSAPVIIVTGKIVSPFVWILSASTNLLSRLTPMTFDDADEPMTRDEIEYMLTKSEDTLEAEEIEMLQGIFSLDELMAREVMVPRTDAFMIDIEDDTQENIQAILKQSFSRIPVYEDNKDKIIGVIHTKKLLKAAYELGFENVNLRRIMNEPLFVPETIFVDDLLAAFRNTNNQMAILLDEYGGVAGLVTFEDLLEEIVGEIDDETDKASVEVREIGENTYIVEGSMTLNDFNEHFDTELESDDVDTIAGYYLTGVGAIPTQEVKEHYEVINKDKRLEFINDKVKDGRVTKLKVIITAAPEEAGE” the protein production was “failed”.

For “MAGFPELVVLDPPWDKELAAGTESQALVSATPREDFRVRCTSKRAVTEMLQLCGRFVQKLGDALPEEIREPALRDAQWTFESAVQENISINGQAWQEASDNCFMDSDIKVLEDQFDEIIVDIATKRKQYPRKILECVIKTIKAKQEILKQYHPVVHPLDLKYDPDPAPHMENLKCRGETVAKEISEAMKSLPALIEQGEGFSQVLRMQPVIHLQRIHQEVFSSCHRKPDAKPENFITQIETTPTETASRKTSDVVLKRKQTKDCPQRKWYPLRPKKINLDT”, the protein production was “failed”.
